Legend:
MS2 coat protein [1] = experiment: apparent KD of MS2 coat protein; designed switch direction (-1 OFF switch, 1 ON switch): -1; higher = weaker reporter binding; conditions: Eterna round: R98
Experimental: (§1)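 RNA-MaP: designed FMN/MS2 RNA switches (84 nt design region) are transcribed on-chip within common flanks and titrated with SNAP-549-labelled MS2 coat protein (about 1-3000 nM) in 100 mM Tris pH 7.5, 80 mM KCl, 4 mM MgCl2, without or with 200 uM FMN. Median apparent KD per design; activation ratio = KD,OFF / KD,ON.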

MS2 coat protein [2] = experiment: apparent KD of MS2 coat protein; designed switch direction (-1 OFF switch, 1 ON switch): 1; higher = weaker reporter binding; conditions: Eterna round: R98
Experimental: as §1

MS2 coat protein [3] = experiment: apparent KD of MS2 coat protein; higher = weaker reporter binding; conditions: Eterna round: R101
Experimental: as §1

Row | Sequence | apparent KD of MS2 coat protein (MS2 coat protein [2]; input ligand: FMN 200 uM) [nM] | apparent KD of MS2 coat protein (MS2 coat protein [2]; input ligand: none) [nM] | apparent KD of MS2 coat protein (MS2 coat protein [3]; input ligand: FMN 200 uM) [nM] | apparent KD of MS2 coat protein (MS2 coat protein [3]; input ligand: none) [nM] | further results
1 | AAAAUAAAGGCAGGAUAUACAUGAAUAAAUAAUAUAAUAUAUAAUAAAACAUGAGGAUCACCCAUGUAGAAGGGCCAAAAUAAA [LRO024_Exclusion NG 2] | – | – | – | – | apparent KD of MS2 coat protein (MS2 coat protein [1]; input ligand: FMN 200 uM): 107 nM; apparent KD of MS2 coat protein (MS2 coat protein [1]; input ligand: none): 72.3 nM
2 | ACAUACAUUCGAGGAUAUCGGUGAUUAAUUCUACGAGAAGGCGAUUUAAGAUAUAAUAUUUUAGACAUGAGGAUCACCCAUGUA [JR_SSNG1_Sub036] | 22.9 | 28.3 | – | – | –
3 | CCGAUGCAAAUAAAACAUGAGGAUCACCCAUGUGAGUCUCAUGAGGAUAUGCAGGUCAAAGACUUGCAGAAGGCAUGGCGUCGG [Eli sng3 2.08] | 135 | 1370 | – | – | –
4 | CCGAUUAGCACAGGAUAUGGGAGUUCGUAGCUCCCAGAAGGGUGAGCCAAUACAUGAGGAUCACCCAUGUGCGGUAGGUCAGGA [Energe] | 56 | 57.1 | – | – | –
5 | CCUGUCGCAUGAGGAUAUGGUCAGCUUUGCUGACCAGAAGGCAUGUCAAUAGACAUGAGGAUCACCCAUGUAGUAAAGACAGGA [Mat - Same State NG 1 - JL Mod - D36] | 36.2 | 395 | – | – | –
6 | GACUGCAGGAUAACAACCUGCAGUCACUUCUGAGGAUCACCCAGAAGGGCUGAGGUAAUACCUCAGCAGGAUAUGGAGUGUAAA [#SharedSequence IExNG# - 8] (puzzle (switch architecture): Inverted Exclusion NG 3) | – | – | 70.1 | 21.9 | –
7 | GACUUGGCUACAUGAGGAUCACCCAUGUUUGACUGGAUCGAUUAGGAUAUAGUGAUUUGCAACAAUUAGAAGGGAUAUUUACGG [byesamestateseeyounextround#3] | 31.3 | 32.9 | – | – | –
8 | GAUCCGAGCACAGGAUAUGUUAGAGAGGGUGAGACAGAAGGGUGCUCCGGUAAGGCCAAGCACAUGAGGAUCACCCAUGUACAU [Orbezaen] | 64.9 | 29.7 | – | – | –
9 | GCUUGCGACGCAGGAUAUGGGUGCCUGCACACGAGGAUCACCCGUGUAGAGGAAGCGAAAAGCUCUCAGAAGGGCGUCGCAGGC [United States 5 - Jieux - Same State NG 2] | 20.7 | 45.3 | – | – | –
10 | GGAGAUACAUGAGGAUCACCCAUGUAGGAUAUAUAGUAUAUAUAUAUUGAAAGGUAUAUAUAUAUAUAGAAGGGCGUGCACACC [#LOL-18] (puzzle (switch architecture): Small Loop Exclusion NG 3) | – | – | 6.73 | 9.07 | –
11 | GGAGAUACAUGAGGAUCACCCAUGUAGGAUAUCGGGCCCGGGCCCGGCGAAAGCCGGGCCCGGGCCGAGAAGGGCGUACACACC [#LOL-2] (puzzle (switch architecture): Small Loop Exclusion NG 3) | – | – | 5.79 | 7.3 | –
12 | GGAUAGGACAGAGGAUAUACGUGCUAGAGAUACUAGCAAAAUUUCCUCACAUGAGGAUCACCCAUGUAGAAGGCUGUCCUAUCG (puzzle (switch architecture): Exclusion NG 2) | – | – | 415 | 15.7 | –
13 | GGAUCCAUCACAGGAUAUGCUGGACUUUGUCCAGCAGAAGGGUGAACAUGAGGAUCACCCAUGUAUUGGAUCCAUAUAUUUAAU [Denovo 35] | 94.1 | 1290 | – | – | –
14 | GGGUCGCUUGGAGGAUAUCCAACUAUCCUAGUUGGAGAAGGCCAAGCUACAGAGCUAAGCUUGGAAGUCACUUCGGACCCACAC [pwkr ssNG1 F9.4.5] | 47 | 15.6 | – | – | –
15 | GGUCCAUCAUGAGGAUAUGGCACCUUAUUGGUGCCAGAAGGCAUGUGUAUUCACAUGAGGAUCACCCAUGUAAUAAAUUGGACC [Pyrimidine booster 8] | 21.5 | 53.2 | – | – | –
16 | GGUCGACUUCAAGGAUAUGGACUGCAAAGCAGUCCAGAAGGUGAGGAUCACCCAUCUACGGUCAGGAAACUGACCGAUCGACCA [#SharedSequence - ExNG1-8] (puzzle (switch architecture): Exclusion NG 1) | – | – | 117 | 86.2 | –
17 | GGUGCACGCACAGGAUAUCCGGCGAAGCUCGUCGGAGAAGGGUGACAUGAGGAUCACCCAUGUACGUGCAGCCAAGUUUGAGAG [Laaar] (puzzle (switch architecture): Same State NG 1) | – | – | 47.6 | 26.8 | –
18 | GGUUGACGACAAUUACAUGAGGAUCACCCAUGUUGUGGGAUGCAGGAUAUGUGGUAUAUUAUUUAACAGAAGGGCAAUAAUUUU [JR_SSNG3_Sub063] | 54.7 | 32.3 | – | – | –
19 | GUCACGGUUAAUUCCGUGACGCGCAAUCCUUGAGGAUCACCCAAGGAUAUCGACGUCAAUGACGUCGAGAAGGUGGUUGAGCGC [#SharedSequence2] (puzzle (switch architecture): Exclusion NG 3) | – | – | 23.5 | 13.6 | –
20 | GUCAGCUCGUGAGGAUAUACAACACUGCUUCGGCAGUGUAUUAAGAUCACAUGAGGAUCACCCAUGUAGAAGGCACGAGCUGAU (puzzle (switch architecture): Exclusion NG 2) | – | – | 240 | 13.9 | –
21 | GUUGCUUUCCGAGGAUAUUCCGGGCGUGGCUAUACAUGAGGAUCACCCAUGUGGCGGAAGCCUAGGGAGAAGGCGGGCUGCUUC [salish99_SSNG2_r2_230] | 16.3 | 17.1 | – | – | –
22 | UAAAUAGAUCCUAGAGGAUCACCCUAGGAUAUCACCGUCGAGGUGCCAUAAUGGCACCUCGACGGUGAGAAGGAGGAAAAUAAA [#SharedSequence - SLExNG3: 5] (puzzle (switch architecture): Small Loop Exclusion NG 3) | – | – | 21.8 | 11.5 | –
23 | UAAUAUAUAUAGAAGGACAUGAGGAUCACCCAUGUCGCCGGGCCCGGGAAACCGGGCCCGGCCAUGUAGGAUAUAUAUAUAUUA [#This is a good prank 10] (puzzle (switch architecture): Inverted Exclusion NG 2) | – | – | 5.17 | 4.9 | –
24 | UAGAUAUGGUGAGGAUAUGCAGAGGAUCACCCUGUAGAAGGCAUCAGGGUAGAAGGUGCAAGGAUCACCUGUAAGGAUAUAUCC [pwkr2 ssNG1 DX.29] | 917 | 1050 | – | – | –
25 | UCUCUGGAAUACAUGAGGAUCACCCAUGUGUAAACAUUUACACAGGAUAUCGACGUCUGAGACGACGAGAAGGGUGGGCAGCAA [Rexele] | 1000 | 252 | – | – | –
26 | UGAUCGCUUGGAGGAUAUCCAACUAUCCUAGUUGGAGAAGGCCAAGCUACAGAGCUAAGCUUGGAAGUCACUUCGAAUCAACAC [pwkr Chip 1 Control 70 ssNG1 F9.4] | 64.8 | 53.6 | – | – | –
27 | UUACUCAUGUAAGGAUAUGCAGCCGAAACGGCUGCAGAAGGUACUAUAAUACAUGAGGAUCACCCAUGUAAAAUAUAUAAAGUU (puzzle (switch architecture): Same State NG 1) | – | – | 18.3 | 29.3 | –
28 | UUGGACGUCGUAGGAUAUGUAGGAUAUUCCUACAUGAGGAUCACCCAUGUUGACAUGGAAGAAGGACAGAAGGACGAUGUCCAU (puzzle (switch architecture): Same State NG 2) | – | – | 4.56 | 217 | –

Source: the supplement of paper PMC9170038
